Measurements published in patent US20240352438A1, “MEANS AND METHODS FOR DETOXIFYING OCHRATOXIN A” (DSM Austria GmbH, priority 2021, published 2024).

Key:
[1] = Enzymatic activity comparison: activity remaining after 65° C. for 10 min at pH 6.0, relative to SEQ ID NO: 1; type: physicochemical
Protocol: To compare the temperature behavior and thermostability of selected enzymes to one another, enzyme was incubated at 65° C. for 10 min at pH 6.0. The enzymatic activity remaining after incubation was compared to the remaining activity of the enzyme of SEQ ID NO: 1 after incubation, the latter being set to 100%, see Table 16.

[2] = OTA detoxification activity assay (specific activity, fluorescence reduction ex/em 390/450 nm); type: biochemical; settings: SEQ ID NO: 1 = 100%
In short: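 Recombinant enzyme preparation with 200 ng/mL OTA in 100 mM sodium phosphate, at pH 6.0 and pH 7.5, 37° C. Degradation followed as the fall in fluorescence at ex/em 390/450 nm. Specific activity taken from the initial linear slope; one unit degrades 1 μmol OTA per min at a starting OTA of […].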

B1: 174 (protein)
chain: MTTRTRILTAFLSLLAANACAADAAPAAPHTVVLRAARMFDGASGKLVDHPQLTIVGNKIVRIAQGDKAEVPAGAEVVDLGDATLLPGFIDAHVHLSGQSSDNWYGDFFDNMMRFPAEQALYGAYYARITLEAGFTSVRDVGSTDWVALGLRNAIDAGKVPGPRMLVSNYAVGSTGGHADQDPVPPHKLPLAGPLQGVCNGPEECRAAVRYQIKYGANVIKFMPSGGVLSLSDPVDAPELSQDEMNAVIGESHAWGRKVAAHAHGDKAAKMAVAAGVDSIEHGSFIEDDTLRAMKAKNVYLVPTISAVAHVEEKIGTYPPVIAEKGRAAAAHLRQTFRHAVQIGVPIALGTDAGVGAHGSNAREFRYMVENGLTPAQALLAGTANAARLLGTFDRVGTLEAGKLADVVAVPGNPIADITVTERPLFVMKDGVVVRRDAVR
modifications: exemplary polypeptide
[1]
  Enzymatic activity remaining after incubation, compared to SEQ ID NO: 1 (set to 100%): 54%
[2]
  Specific OTA detoxification activities in % compared to the enzyme of SEQ ID NO: 1, pH 6.0: 45%
  Specific OTA detoxification activities in % compared to the enzyme of SEQ ID NO: 1, pH 7.5: 59%

B2: 175 (protein)
chain: MTTRTRILTAFLSLLAANACAADAAPAAPHTVVLRAARMFDGASGKLVDHPQLTIVGNKIVRIAQGDKAEVPAGAEVVDLGDATLLPGFIDAHVHLSGQSSDNWYGDFFDNMMRFPAEQALYGAYYARITLEAGFTSVRDVGSTDWVALGLRNAIDAGKVPGPRMLVSNYAVGSTGGHADQDPVPPHKLPLAGPLQGVCNGPEECRAAVRYQIKYGANVIKFMPSGGVLSLSDPVDAPELSQDEMNAVIGESHAWGRKVAAHAHGDKAAKMAVAAGVDSIEHGSFIEDDTLRAMKAKNVYLVPTISAAAHVEEKIGTFPPVIAEKGRAAAAHLRQTFRHAVQIGVPIALGTDAAVGAHGSNAREFRYMVENGLTPAQALLAGTANAARLLGTFDRVGTLEAGKLADVVAVPGNPIADITVTERPLFVMKDGVVVRRDAVR
modifications: exemplary polypeptide
[1]
  Enzymatic activity remaining after incubation, compared to SEQ ID NO: 1 (set to 100%): 13%
[2]
  Specific OTA detoxification activities in % compared to the enzyme of SEQ ID NO: 1, pH 6.0: 121%
  Specific OTA detoxification activities in % compared to the enzyme of SEQ ID NO: 1, pH 7.5: 108%

B3: 177 (protein)
chain: MTTRTRILTAFLSLLAANACAADAAPAAPHTVVLRAARMFDGASGKLVDHPQLTIVGNKIVRIAQGDKAEVPAGAEVVDLGDATLLPGFIDAHVHLSGQSSDNWYGDFFDNMMRFPAEQALYGAYYARITLEAGFTSVRDVGSTDWVALGLRNAIDAGKVPGPRMLVSNYAVGSTGGHADQDPVPPHKLPLAGPLQGVCNGPEECRAAVRYQIKYGANVIKFMPSGGVLSLSDPVDAPELSQDEMNAVIGESHAWGRKVAAHAHGDKAAKMAVAAGVDSIEHGSFIEDDTLRAMKAKNVYLVPTISAIAHVEEKIGTYPPVIAEKGRAAAAHLRQTFRHAVQIGVPIALGTDAAVGAHGSNAREFRYMVENGLTPAQALLAGTANAARLLGTFDRVGTLEAGKLADVVAVPGNPIADITVTERPLFVMKDGVVVRRDAVR
modifications: exemplary polypeptide
[1]
  Enzymatic activity remaining after incubation, compared to SEQ ID NO: 1 (set to 100%): 20%
[2]
  Specific OTA detoxification activities in % compared to the enzyme of SEQ ID NO: 1, pH 6.0: 94%
  Specific OTA detoxification activities in % compared to the enzyme of SEQ ID NO: 1, pH 7.5: 90%

B4: 179 (protein)
chain: MTTRTRILTAFLSLLAANACAADAAPAAPHTVVLRAARMFDGASGKLVDHPQLTIVGNKIVRIAQGDKAEVPAGAEVVDLGDATLLPGFIDAHVHLSGQSSDNWYGDFFDNMMRFPAEQALYGAYYARITLEAGFTSVRDVGSTDWVALGLRNAIDAGKVPGPRMLVSNYAVGSTGGHADQDPIPPHKLPLAGPLQGVCNGPEECRAAVRYQIKYGANVIKFMPSGGVLSLSDPVDAPELSQDEMNAVIGESHAWGRKVAAHAHGDKAAKMAVAAGVDSIEHGSFIEDDTLRAMKAKNVYLVPTISAVAHVEEKIGTYPPVIAEKGRAAAAHLRQTFRHAVQIGVPIALGTDAAVGAHGSNAREFRYMVENGLTPAQALLAGTANAARLLGTFDRVGTLEAGKLADVVAVPGNPIADITVTERPLFVMKDGVVVRRDAVR
modifications: exemplary polypeptide
[1]
  Enzymatic activity remaining after incubation, compared to SEQ ID NO: 1 (set to 100%): 17%
[2]
  Specific OTA detoxification activities in % compared to the enzyme of SEQ ID NO: 1, pH 6.0: 49%
  Specific OTA detoxification activities in % compared to the enzyme of SEQ ID NO: 1, pH 7.5: 66%
